The record followed here is patent US20030228258A1.

For assay [1], the target named is T cell receptors of the mouse LLO91-99-specific CD8+ T cell line (mouse). The assay is described as follows: flow cytometry, tetramer staining at 37 C, 1 h incubation.
The target is the same in assay [2]. In words: flow cytometry, tetramer staining of CD8+ T cell line.
Assay [3] deals with T cell receptors of the mouse p60217-225-specific CD8+ T cell line (mouse). Described as above.
Assay [4] concerns the target T cell receptors of the mouse LLO91-99-specific CD8+ T cell line (mouse). The assay is described as follows: flow cytometry, tetramer staining at 37 C, 8 h incubation. (In general: Flow cytometry measures light scatter and fluorescence of single cells or particles in a stream.)
Assay [5] shares this target. The assay is described as follows: flow cytometry, tetramer staining at 37 C, column headed 2 h.
Assay [6] addresses T cell receptors of the human Flu-specific (Flu58-66) CD8+ T cell line (human). In words: flow cytometry, tetramer staining at 37 C, 1 h incubation.
Assay [7] has the same target. The assay is described as follows: flow cytometry, tetramer staining at 37 C, 24 h incubation.
Assay [8] shares this target. The assay is described as follows: flow cytometry, tetramer staining of CD8+ T cell line.
The target is the same in assay [9]. In words: flow cytometry, tetramer staining at 37 C, 8 h incubation.
For assay [10] the target is unchanged. The assay is described as follows: flow cytometry, tetramer staining at 37 C, column headed 2 h.
Assay [11] concerns the target T cell receptors of the mouse LLO91-99-specific CD8+ T cell line (mouse). The assay is described as follows: cell-based or functional assay.
Assay [12] has as its target T cell receptors of the mouse p60217-225-specific CD8+ T cell line (mouse). In words: cell-based or functional assay.

Consider “LLO91-99/H-2K^d tetramer (fluorescent, non-radiolabeled) (from UniProt P61769 21-119; P22629 37-163; P01902 22-305) (peptide-MHC)”, for which the results for the % tetramer binding of CD8+ T cells in assay [1], in assay [4] and in assay [5] were 76%, 63% and 75%, respectively. Further, the % of CD8+ T cells that bound the tetramer in [2] amounted to 76%. The substance also showed a % of CD8+ T cells stained with the tetramer in assay [3] of 1.3%.

In assay [3], “p60217-225/H-2K^d tetramer (from UniProt P61769 21-119; P22629 37-163; P01902 22-305) (peptide-MHC)” returned a % of CD8+ T cells stained positive for the tetramer of 70%.

On to “LMP1/HLA-A2 tetramer (PE- or FITC-streptavidin, non-radiolabeled) (from UniProt P61769 21-119; P22629 37-163) (peptide-MHC)”, for which the % tetramer binding of CD8+ T cells in [6] stood at 0.9%; in [7], 1%; in assay [9] it was 1.5%; in assay [10], 1.2%. In addition, the % of CD8+ T cells stained with the tetramer in assay [8] was determined as 1%.

Regarding “225Ac-labeled LLO91 tetramer (225Ac-DOTA-biotin, LLO91/H-2K^d monomers, streptavidin) (from UniProt P61769 21-119; P22629 37-163; P01902 22-305) (peptide-MHC)”, the IFN-γ ELISPOT, spots, non-treated vs treated with 10 nCi/ml for 72 hr (specific IFN-γ spots (treated)) in assay [11] was 83; in assay [12], 105. Moreover, the cell killing (ED50) in [11] is 4 to 8 nCi/ml; in assay [12], 100 to 200 nCi/ml.
